Measurements as given in patent publication US12269859B2, “Synthetic immune receptors and methods of use thereof” (Angeles Therapeutics, Inc., priority 2016, dated 2025).

B1: 090116-K02 (protein)
chain: MALPVTALLLPLALLLHAARPLEGKPIPNPLLGLDSTGSGEDLKNVFPPEVAVFEPSKAEIAHTQKATLVCLATGFYPDHVELSWWVNGKEVHSGVCTDPQPLKEQPALNDSRYCLSSRLRVSATFWQNPRNHFRCQVQFYGLSENDEWTQDRAKPVTQIVSAEAWGRADCGITSASYHQGVLSATILYEILLGKATLYAVLVSALVLMAMVKRKDSRGRAKRSGSGATNFSLLKQAGDVEENPGPTSMALPVTALLLPLALLLHAARPDIVMTQSHKFMSTSVGDRVSVTCKASQNVGNNVAWYQQKPGQSPKVLIYSASYRYSGVPDRFTGSGSGTDFTLTISNVQSEDLAEYFCQQYNTYPFTFGSGTKLEIKGGGGSGGGGSGGGGSEVQLEESGGGLVQPGGSMKLSCVASGFTFSNYWMNWVRQSPEKGLEWVAEIRFKSHNYATHFAESVKGRFTISRDDSKSSVYLQMNNLRAEDTGIYYCTRRIGNSDYDWWYFDVWGAGTSVTVSSASTREQKLISEEDGSGIQNPDPAVYQLRDSKSSDKSVCLFTDFDSQTNVSQSKDSDVYITDKCVLDMRSMDFKSNSAVAWSNKSDFACANAFNNSIIPEDTFFPSSDVPCDVKLVEKSFETDTNLNFQNLSVIGFRILLLKVAGFNLLMTLRLWSSRAKRSGSGVKQTLNFDLLKLAGDVESNPGPSRGHMTEYKPTVRLATRDDVPRAVRTLAAAFADYPATRHTVDPDRHIERVTELQELFLTRVGLDIGKVWVADDGAAVAVWTTPESVEAGAVFAEIGPRMAELSGSRLAAQQQMEGLLAPHRPKEPAWFLATVGVSPDHQGKGLGSAVVLPGVEAAERAGVPAFLETSAPRNLPFYERLGFTVTADVEVPEGPRTWCMTRKPGA
modifications: Synthetic Immune Receptor (SIR)
B2: 092216-B03 (protein)
chain: MALPVTALLLPLALLLHAARPLEGKPIPNPLLGLDSTGSGEDLKNVFPPEVAVFEPSKAEIAHTQKATLVCLATGFYPDHVELSWWVNGKEVHSGVCTDPQPLKEQPALNDSRYCLSSRLRVSATFWQNPRNHFRCQVQFYGLSENDEWTQDRAKPVTQIVSAEAWGRADCGITSASYHQGVLSATILYEILLGKATLYAVLVSALVLMAMVKRKDSRGRAKRSGSGATNFSLLKQAGDVEENPGPTSMALPVTALLLPLALLLHAARPDQIVLTQSPAIMSASPGEKVTISCSASSSVSYMYWYQQKPGSSPKPWIYRTSNLASGVPARFSGSGSGTSYSLTISNMEAEDAAAYYCQQYHSYPTTFGGGTKLEVKGGGGSGGGGSGGGGSEVQLVESGGGLVQPKGSLKLSCAASGFSFNTYAMNWVRQAPGKGLEWIAHIRSKSNNFATYYADSVKDRFSISRDASENILFLQMNNLKTEDTAMYYCVRQGGDFPMDYWGQGTSVTVSSTREQKLISEEDGSGIQNPDPAVYQLRDSKSSDKSVCLFTDFDSQTNVSQSKDSDVYITDKCVLDMRSMDFKSNSAVAWSNKSDFACANAFNNSIIPEDTFFPSSDVPCDVKLVEKSFETDTNLNFQNLSVIGFRILLLKVAGFNLLMTLRLWSSRAKRSGSGVKQTLNFDLLKLAGDVESNPGPSRGHMTEYKPTVRLATRDDVPRAVRTLAAAFADYPATRHTVDPDRHIERVTELQELFLTRVGLDIGKVWVADDGAAVAVWTTPESVEAGAVFAEIGPRMAELSGSRLAAQQQMEGLLAPHRPKEPAWFLATVGVSPDHQGKGLGSAVVLPGVEAAERAGVPAFLETSAPRNLPFYERLGFTVTADVEVPEGPRTWCMTRKPGA
modifications: Synthetic Immune Receptor (SIR)
B3: 101817-B02 (protein)
chain: MALPVTALLLPLALLLHAARPEIVLTQSPATLSLSPGERATLSCSASSSVSYMYWYQQKPGQAPRLLIYRTSNLASGIPARFSGSGSGTDFTLTISSLEPEDFAVYYCQQYHSYPTTFGQGTKVEIKRTVLEIQNPDPAVYQLRDSKSSDKSVCLFTDFDSQTNVSQSKDSDVYITDKCVLDMRSMDFKSNSAVAWSNKSDFACANAFNNSIIPEDTFFPSSDVPCDVKLVEKSFETDTNLNFQNLSVIGFRILLLKVAGFNLLMTLRLWSSRAKRSGSGVKQTLNFDLLKLAGDVESNPGPTSMDWIWRILFLVGAATGAHSFEEVQLVESGGGLVQPGGSLRLSCAASGFSFNTYAMNWVRQAPGKGLEWVSHIRSKSNNFATYYADSVKDRFTISRDNAKNSLYLQMNSLRAEDTAVYYCARQGGDFPMDYWGQGTLVTVSSTREDLKNVFPPEVAVFEPSKAEIAHTQKATLVCLATGFYPDHVELSWWVNGKEVHSGVCTDPQPLKEQPALNDSRYCLSSRLRVSATFWQNPRNHFRCQVQFYGLSENDEWTQDRAKPVTQIVSAEAWGRADCGITSASYHQGVLSATILYEILLGKATLYAVLVSALVLMAMVKRKDSRGRAKRSGSGATNFSLLKQAGDVEENPGPSRGHMTEYKPTVRLATRDDVPRAVRTLAAAFADYPATRHTVDPDRHIERVTELQELFLTRVGLDIGKVWVADDGAAVAVWTTPESVEAGAVFAEIGPRMAELSGSRLAAQQQMEGLLAPHRPKEPAWFLATVGVSPDHQGKGLGSAVVLPGVEAAERAGVPAFLETSAPRNLPFYERLGFTVTADVEVPEGPRTWCMTRKPGA
B4: 083016-B06 (protein)
chain: MALPVTALLLPLALLLHAARPLEGKPIPNPLLGLDSTGSGEDLKNVFPPEVAVFEPSKAEIAHTQKATLVCLATGFYPDHVELSWWVNGKEVHSGVCTDPQPLKEQPALNDSRYCLSSRLRVSATFWQNPRNHFRCQVQFYGLSENDEWTQDRAKPVTQIVSAEAWGRADCGITSASYHQGVLSATILYEILLGKATLYAVLVSALVLMAMVKRKDSRGRAKRSGSGATNFSLLKQAGDVEENPGPTSMALPVTALLLPLALLLHAARPDIVMTQSHKFMSTSVGDRVSVTCKASQNVGNNVAWYQQKPGQSPKVLIYSASYRYSGVPDRFTGSGSGTDFTLTISNVQSEDLAEYFCQQYNTYPFTFGSGTKLEIKGGGGSGGGGSGGGGSEVQLEESGGGLVQPGGSMKLSCVASGFTFSNYWMNWVRQSPEKGLEWVAEIRFKSHNYATHFAESVKGRFTISRDDSKSSVYLQMNNLRAEDTGIYYCTRRIGNSDYDWWYFDVWGAGTSVTVSSASTREQKLISEEDLGSGTPFPSLAPPIMLLVDGKQQMVVVCLVLDVAPPGLDSPIWFSAGNGSALDAFTYGPSPATDGTWTNLAHLSLPSEELASWEPLVCHTGPGAEGHSRSTQPMHLSGEASTARTCPQEPLRGTPGGALWLGVLRLLLFKLLLFDLLLTCSCLCDPAGPLPSPATTTRLRALGSHRLHPATETGGREATSSPRPQPRDRRWGDTPPGRKPGSPVRAKRSGSGVKQTLNFDLLKLAGDVESNPGPSRSRGHMTEYKPTVRLATRDDVPRAVRTLAAAFADYPATRHTVDPDRHIERVTELQELFLTRVGLDIGKVWVADDGAAVAVWTTPESVEAGAVFAEIGPRMAELSGSRLAAQQQMEGLLAPHRPKEPAWFLATVGVSPDHQGKGLGSAVVLPGVEAAERAGVPAFLETSAPRNLPFYERLGFTVTADVEVPEGPRTWCMTRKPGA
modifications: Polynucleotide encoding a Synthetic Immune Receptor (SIR)
B5: 032216-Y07 (protein)
chain: MALPVTALLLPLALLLHAARPDIVMTQSHKFMSTSVGDRVSVTCKASQNVGNNVAWYQQKPGQSPKVLIYSASYRYSGVPDRFTGSGSGTDFTLTISNVQSEDLAEYFCQQYNTYPFTFGSGTKLEIKLEGKPIPNPLLGLDSTGSGEDLKNVFPPEVAVFEPSKAEIAHTQKATLVCLATGFYPDHVELSWWVNGKEVHSGVCTDPQPLKEQPALNDSRYCLSSRLRVSATFWQNPRNHFRCQVQFYGLSENDEWTQDRAKPVTQIVSAEAWGRADCGITSASYHQGVLSATILYEILLGKATLYAVLVSALVLMAMVKRKDSRGRAKRSGSGATNFSLLKQAGDVEENPGPTSMDWIWRILFLVGAATGAHSFEEVQLEESGGGLVQPGGSMKLSCVASGFTFSNYWMNWVRQSPEKGLEWVAEIRFKSHNYATHFAESVKGRFTISRDDSKSSVYLQMNNLRAEDTGIYYCTRRIGNSDYDWWYFDVWGAGTSVTVSSASTREQKLISEEDGSGIQNPDPAVYQLRDSKSSDKSVCLFTDFDSQTNVSQSKDSDVYITDKCVLDMRSMDFKSNSAVAWSNKSDFACANAFNNSIIPEDTFFPSSDVPCDVKLVEKSFETDTNLNFQNLSVIGFRILLLKVAGFNLLMTLRLWSSRAKRSGSGVKQTLNFDLLKLAGDVESNPGPSRGHMTEYKPTVRLATRDDVPRAVRTLAAAFADYPATRHTVDPDRHIERVTELQELFLTRVGLDIGKVWVADDGAAVAVWTTPESVEAGAVFAEIGPRMAELSGSRLAAQQQMEGLLAPHRPKEPAWFLATVGVSPDHQGKGLGSAVVLPGVEAAERAGVPAFLETSAPRNLPFYERLGFTVTADVEVPEGPRTWCMTRKPGA
modifications: Polynucleotide encoding a Synthetic Immune Receptor (SIR)
B6: 091316-A01 (protein)
chain: MALPVTALLLPLALLLHAARPLEGKPIPNPLLGLDSTGSGEDLKNVFPPEVAVFEPSKAEIAHTQKATLVCLATGFYPDHVELSWWVNGKEVHSGVCTDPQPLKEQPALNDSRYCLSSRLRVSATFWQNPRNHFRCQVQFYGLSENDEWTQDRAKPVTQIVSAEAWGRADCGITSASYHQGVLSATILYEILLGKATLYAVLVSALVLMAMVKRKDSRGRAKRSGSGATNFSLLKQAGDVEENPGPTSMALPVTALLLPLALLLHAARPDIVMTQAAPSIPVTPGESVSISCRSDKSLLHSNGNTYLFWFLQRPGQSPQLLIYRMSNLASGVPDRFSGSGSGTAFTLRISGVEAEDVGVYYCMQHLEYPYTFGGGTKLEIKGGGGSGGGGSGGGGSQVQLQQSGPELVKPGASVKMSCKASGYAFSSSWLNWVRQRPGKGLEWIGRIYPGDGENHYNGKFKGKATLTADKSSSTGYMQLSSLTSEDSAVYFCASYYEGGYWGQGTLITVSATREQKLISEEDGSGIQNPDPAVYQLRDSKSSDKSVCLFTDFDSQTNVSQSKDSDVYITDKCVLDMRSMDFKSNSAVAWSNKSDFACANAFNNSIIPEDTFFPSSDVPCDVKLVEKSFETDTNLNFQNLSVIGFRILLLKVAGFNLLMTLRLWSSRAKRSGSGVKQTLNFDLLKLAGDVESNPGPSRGHMTEYKPTVRLATRDDVPRAVRTLAAAFADYPATRHTVDPDRHIERVTELQELFLTRVGLDIGKVWVADDGAAVAVWTTPESVEAGAVFAEIGPRMAELSGSRLAAQQQMEGLLAPHRPKEPAWFLATVGVSPDHQGKGLGSAVVLPGVEAAERAGVPAFLETSAPRNLPFYERLGFTVTADVEVPEGPRTWCMTRKPGA
modifications: Synthetic Immune Receptor (SIR)

Tested on: target antigen-expressing cell line
Experiment: Jurkat NFAT-GFP assay, coculture with target cell lines expressing the respective target antigen (summary Table 10A)
Format: cell-based, human
Set-up: key: The signs +/−, +, 2+ etc. after the name of the cell lines indicate the relative degree of positivity on the Jurkat-NFAT-GFP assay as measured by the % GFP positive cells; +: relative degree of positivity on the Jurkat-NFAT-GFP assay as measured by the % GFP positive cells; 2+: relative degree of positivity on the Jurkat-NFAT-GFP assay as measured by the % GFP positive cells
Outline: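 Read-out: % GFP+ cells by FACS. SIR-transduced, puromycin-selected Jurkat NFAT-GFP (IL-2 promoter reporter) cocultured ~4–18 h with target line, E:T ~1:2; parental cells as control; graded +/−, +, 2+ relative to parental.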

Molecule | NFAT-GFP ASSAY Positive Cell lines (coculture with NALM6 cells) | NFAT-GFP ASSAY Positive Cell lines (coculture with RAJI cells) | NFAT-GFP ASSAY Positive Cell lines (coculture with HEL cells)
B1 | (2+) | RAJI (2+), NALM6 | –
B2 | – | – | HEL (+)
B3 | – | – | HEL (+)
B4 | – | RAJI (+) | –
B5 | – | RAJI (+) | –
B6 | – | – | HEL (+/−)
